# Source: patent publication US20210403913
# How the values were obtained:
# [1] = target: D-CXCL8 (mirror-image human CXCL8) (synthetic (human sequence)) (UniProt P10145); test: pulldown; details: direct pull-down, 37 C
# [2] = target: CXCL8 (IL-8) (Homo sapiens) (UniProt P10145); test: SPR; details: L-RNA, CXCL8 immobilised
# [3] = target: D-CXCL8 (mirror-image human CXCL8) (synthetic (human sequence)) (UniProt P10145); test: competition; details: competition pull-down vs labelled 315-F8-001; 37 C
sequence,measurement,setting,value
GCUGACGGAAGUACGUGGAAAGCCAAUGAGUGUGUCCCGGUCAGC [315-H9-001 (D)],Kd,[1],1.7 nM
GCUGACGGAAGUACGUGGAAAGCCGAAAGUGUGUCCCGGUCAGC [315-F8-001 (L)],Kd,"[2]; 25 C, 20 mM Tris pH 7.4, 150 mM NaCl, 5 mM KCl, 1 mM MgCl2, 1 mM CaCl2",0.22 nM
same,Kd,[2]; 37 C,0.68 nM
CUGACGGAAGUACGUGGAAAGCCGAAAGUGUGUCCCGGUCAG [315-F8-002 (D)],Kd,[3],1.1 nM
CUGACGGAAGUACGUGGAAAGCCGAAAGUGUGUCCCGGUCAG [315-F8-002-PEG (AON-S08)],Kd,"[2]; 5'-aminohexyl linker with 40 kDa Y-shape PEG, 25 C",0.2 nM
same,Kd,"[2]; 5'-aminohexyl linker with 40 kDa Y-shape PEG, 37 C",0.8 nM
CUGACGGAAGUACGUGGAAAGCCGAAAGUGUGUCCCGGUCAG [315-F8-002 (L)],Kd,[2]; 25 C,0.22 nM
same,Kd,[2]; 37 C,0.75 nM
GCUGACGGAAGUACGUGGAAAGCCGAAAGUGUGUCCCGGUCAGC [315-F8-001 (D)],Kd,"[1]; 20 mM Tris pH 7.4, 150 mM NaCl, 5 mM KCl, 1 mM MgCl2, 1 mM CaCl2, yeast RNA",0.8 nM
